Data on 142 substances can be found in the supplement of paper PMC12042874.

± gives the uncertainty stated by the source.

A short description of this data set: amyloid nucleation score (Sup35N fusion, yeast selection) (log enrichment); library NNK1; higher = more nucleation; inactive = no reads after selection. Put shortly:
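Using DiMSum, nucleation scores were taken as the log enrichment of output over input reads, centred on the mode score of non-aggregating sequences. The input and output reads came from Illumina sequencing of plasmid inserts, with sequences under 100 input reads excluded. The yeast were psi-negative, expressed Sup35N fused to peptides of 20 random codons, were induced with 100 μM copper sulfate for 24 hours, and were grown 7 days at 30°C on medium lacking adenine and uracil.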
In turn, LCQGEKISPVKQHHVYCLGE registered an amyloid nucleation score of 0.649 ± 0.85.
As to LCSFKFSVRPLCKKRFKVRV, the amyloid nucleation score was determined as 0.099 ± 0.34.
Then LCSMWEGRGADEMLAICQGA, with 0.152 ± 0.59; and LCSNC, with “inactive”; and LCTRFWDTMYLSSGYFGFLC, with 1.03 ± 0.46.
Next, LCYAGVVLQYVILDHKRSCD: 6.233 ± 0.059; LDIDTKW: -0.204 ± 0.38; LDINDTMYETNCFG: -0.488 ± 0.58.
Substance LDKSGSLVPKRKVTLKDKQR gave an amyloid nucleation score of -0.375 ± 0.41.
Then LDLINRMGNVGMLIMDCYKI, with 0.159 ± 0.43; and LDRAVHPGVVSPWSQVTRTM, with 0.749 ± 0.38.
Next, LDRFVYY: 1.41 ± 0.69.
Then LDTVYNVSMKKIKVTSIGQC, with -0.537 ± 0.47.
Substance LEGLRQDEVGRSASKTVKYS gave an amyloid nucleation score of 1.18 ± 0.76.
Next, LELTC: 1.6 ± 0.53.
Next, LEMVINSFRELSLAY: -0.212 ± 0.46; LFCDPAFGKHLCFRNAFCWF: 0.255 ± 0.23.
LFDDS had an amyloid nucleation score of -0.356 ± 0.46.
For LFDSLEAVYRSYGKSWACYI, the amyloid nucleation score is -1.63 ± 0.9.
For the substance LFDVYN, the amyloid nucleation score was -0.549 ± 0.49.
Next, LFEGHLTSISEPGVVDRSIR: -0.573 ± 1.7; LFESGSRDFLRQKLTFGTVP: 0.066 ± 0.7; LFGGFMFLGKWDQLHGHNEC: 0.799 ± 0.49.
LFGPDLSTRNPGDVSVQSAA yielded an amyloid nucleation score of 0 ± 0.39.
Then LFGVFGFISVVSFSP, with -0.455 ± 1.7; and LFKNRVRLLLHERSLLPVII, with 0.469 ± 0.68.
LFKYYNWVGTLVTYIMIYVW yielded an amyloid nucleation score of -1.62 ± 0.62.
Then LFLKFGGSFAVIFWILVAAV, with 0.74 ± 0.48; and LFLLSTSESCFQCATPANDN, with -0.222 ± 0.59.
Next, LFNILASFSYFAFYYLLLLS: -0.492 ± 0.8; LFQSA: 0.854 ± 0.17; LFRGT: -0.457 ± 0.27.
Then LFRYNDWCAYHLPSPWWGNR, with 0.112 ± 0.83; and LFSIGALY, with -0.035 ± 0.2; and LFSLNTLCM, with 0.985 ± 0.51.
In turn, LFWSET had an amyloid nucleation score of -0.526 ± 0.81.
Next, LFYDDEES: “inactive”; LGCFGIAATKIRKVDMRLGG: 0.729 ± 0.39; LGCLYIA: -0.711 ± 0.44.
For the substance LGIYNGEASRWYRESTPAQ, the amyloid nucleation score is -0.443 ± 0.92.
Substance LGKPVWVQEAKLDADNLWCV showed an amyloid nucleation score of -0.438 ± 0.49.
Then LGKQAMC, with -1.34 ± 2.4.
Then LGLRGKKLRIINAPYTTGRN, with -0.64 ± 0.98.
LGMSKLIMSNNVFNIFDSHP displayed an amyloid nucleation score of 0.847 ± 0.9.
Next, LGPDSLHLFGMVGSGRLNIL: -0.029 ± 0.88; LGQHRKPSYKHSAKHKLFVD: 0.519 ± 0.36; LGRGRKSTMVSQRVERAGVC: -0.626 ± 0.58.
LGRGSAVSSPWVIIRIVNML had an amyloid nucleation score of 0.784 ± 0.72.
Regarding LGSWARD, the amyloid nucleation score was -0.27 ± 0.54.
Turning to LGTTDPYVYSIIMYAFLWIY, the amyloid nucleation score is 0.386 ± 0.47.
With LGVQFSGRLSVPVYFMWFTL, the amyloid nucleation score came out at 0.814 ± 0.61.
Next, LGVRRPQEISCHADHASRWL: -0.776 ± 1.3.
Then LGVVFGRRVHCRLASSVMNM, with -0.723 ± 1.5.
Next, LGYIVRFQCMYTRRYCSCPD: -1.47 ± 2.7.
In the case of LHGPWVVYFELSSIFTLTYQ, the amyloid nucleation score was -0.478 ± 0.29.
In the case of LHKIHNAIDILS, the amyloid nucleation score was found to be 0.504 ± 0.56.
As to LHLPHLRIRTNYSGLILSVM, the amyloid nucleation score is -0.513 ± 0.56.
With LHLRTVAGSWSNIFYLAAPM, the amyloid nucleation score turned out to be 0.433 ± 0.31.
With LHQSVMRWLAASWCPQIKLG, the amyloid nucleation score is 0.338 ± 0.97.
In the case of LHSPDFDLYYVLRILACDTQ, the amyloid nucleation score is -0.866 ± 1.7.
Consider LHSSMNCRWIHTL, for which the amyloid nucleation score stood at 0.618 ± 0.47.
Consider LHTTKK, for which the amyloid nucleation score was 0.293 ± 0.48.
LHVEWSASMSMFCLNHRIAA had an amyloid nucleation score of -0.172 ± 0.61.
In turn, LHYCTCSIRSIF displayed an amyloid nucleation score of 0.325 ± 0.6.
Next, LICLGRPTSNTELGMNDINF: -0.349 ± 0.84; LIDLSSIKSWHVFSKALCGR: 0.006 ± 0.27.
LIGQLIFRPVNGARKIPV gave an amyloid nucleation score of -0.31 ± 0.29.
As to LIHYNNNVYTRWAWSSQQGE, the amyloid nucleation score is 2.75 ± 0.2.
As for LILFLASV, the amyloid nucleation score was found to be 1.35 ± 0.27.
As to LILKISMMGK, the amyloid nucleation score entry is “inactive”.
Regarding LIMSFVFSI, the amyloid nucleation score was 4.57 ± 0.08.
LIPSRFMVNGDTIL had an amyloid nucleation score of 0.971 ± 0.28.
Substance LIQRLVFEYMFPVIGVPISW showed an amyloid nucleation score of -0.208 ± 0.65.
Next, LIRTLANWLSIPHVLI: -0.351 ± 0.3; LISYRYFFCHRECVLVIGSN: 0.327 ± 0.6; LITYLRLFYRITVRTG: 0.48 ± 0.4.
Next, LIVNLKICAVHVGYHWGWRA: 0.653 ± 0.29; LIWWFEGRPRVSGGFSVFDV: -0.304 ± 1.1; LKASMW: 0.322 ± 0.37.
The substance LKCFLINVMLLEMLPFWDRS yielded an amyloid nucleation score of 1.62 ± 0.55.
Next, LKGHLHDSILQCRHKALFF: 0.922 ± 0.75; LKHPDIYRKVERKVRVNMFF: -0.792 ± 0.31; LKHRRSWYLTYIDCAGM: -0.294 ± 0.43.
As to LKKHADNSLDVRS, the amyloid nucleation score result is “inactive”.
In the case of LKLGYMNLLISDRCAVIERY, the amyloid nucleation score is 0.969 ± 0.81.
Next, LKRDVTSVSGY: 0.348 ± 0.38; LKRFMDTDYYFMMKCCTSN: 0.843 ± 0.55.
LKYKKLPFIKRDEKFPTNRN had an amyloid nucleation score of 0.398 ± 0.54.
LLAFL displayed an amyloid nucleation score of -0.704 ± 0.55.
Then LLDMHYTLEWCTKCYTDKVQ, with 0.121 ± 0.26; and LLDVLMDGRFSFVQRYCRAD, with 1.05 ± 0.2; and LLESFTG, with -0.392 ± 0.46.
Then LLGYRTYEMEHSCILRPRNK, with 0.887 ± 0.57; and LLITNGMSNDGNQCSS, with “inactive”; and LLKIGVA, with -0.465 ± 1.5.
Then LLLYLTLAIGSRLCRELPQR, with 0.523 ± 0.43; and LLMAIVCIMIRQGFLRHVSP, with -0.086 ± 0.56.
Substance LLMPDSNG came in with an amyloid nucleation score of -0.699 ± 0.3.
Then LLMYKKCRQWGCGNVSCSFD, with 7.086 ± 0.065; and LLNDSINNPQCFIVSSSGHL, with -0.541 ± 0.39.
On to LLNFFK, for which the amyloid nucleation score is 0.609 ± 1.1.
LLNGEQLQSSDNIRLWIAFR registered an amyloid nucleation score of 0.151 ± 0.41.
Next, LLRMIKICYDLRSNLDSWRS: -0.529 ± 1.7.
As for LLRRLTTI, the amyloid nucleation score turned out to be 0.696 ± 0.52.
Then LLSFLRSAKIQTGR, with 0.229 ± 0.38.
Then LLSLFRYN, with 0.537 ± 1.1; and LLSYPIPDMYSIEATTKRRI, with 0.133 ± 1.4; and LLVLSLINFFFKKRAFCPIT, with 2.11 ± 0.6.
LLVSVFTRYFPGNVRVTWGT showed an amyloid nucleation score of -0.21 ± 0.32.
Then LLVVRNLEGNNIHALVLCVG, with 1.91 ± 0.21; and LLYGA, with -0.727 ± 1.4.
Then LLYIILFRNYILYKLWIRFA, with 0.572 ± 0.3.
Next, LLYPHSTSRGLIMTFYPKSG: 0.54 ± 0.6; LLYTVY: -0.849 ± 1.2.
As for LMESVAVFPNSRLPILTEC, the amyloid nucleation score was -0.011 ± 0.56.
Then LMGECGLSFLTPY, with 0.275 ± 0.84.
On to LMNVVLISHKSFVYSR, for which the amyloid nucleation score was -1.16 ± 2.7.
For the substance LMPARLNYERTALSMPKWSE, the amyloid nucleation score was -0.38 ± 0.63.
Consider LMQLHCLARSLYPFPWSGPT, for which the amyloid nucleation score stood at 1.96 ± 0.42.
Then LMRRGGCVYVGFFWELVCFQ, with -0.524 ± 0.83; and LMSLVNPTRVSLFFDH, with -0.11 ± 0.68; and LMVNLYPY, with 0.16 ± 0.4.
Then LMVYK, with 0.575 ± 0.55.
Substance LMYKICTLVRRLHLSRYKNM came in with an amyloid nucleation score of -1.27 ± 1.7.
Next, LNATGSLPYDIMECTKELWP: -0.343 ± 0.7.
Next, LNEHLFR: 0.615 ± 0.87.
Then LNFVNAPRSHMSGYSIGGLC, with -1.5 ± 1.7; and LNGIFNNPY, with -0.512 ± 0.78.
LNGRYLDVLHQVIHQNVREP registered an amyloid nucleation score of 3.01 ± 0.22.
In turn, LNGTLSCNAISFFIMFA gave an amyloid nucleation score of 0.846 ± 0.44.
Next, LNIEVFNFICNRRAIWMRFA: 0.684 ± 0.53; LNINSKYLNLICYHIRHLAV: -0.593 ± 0.78.
Regarding LNMHSR, the amyloid nucleation score result was “inactive”.
Then LNNAGTFFLPEVFRLRWTNV, with 0.018 ± 0.93; and LNNLCNGMGGL, with -0.78 ± 0.53; and LNNLVFVLLV, with 3.37 ± 0.09.
Next, LNSLPLSTVLYSFRVMYWMY: “inactive”; LNSLVKALQSVNNYVDLTYS: 0.358 ± 1.1.
Next, LNVYWRPCNN: 0.717 ± 0.9; LPCSRRTTPSDVCP: -0.271 ± 0.36.
Consider LPDNSIYRYLSY, for which the amyloid nucleation score stood at 0.149 ± 0.42.
Next, LPGDDTSCEDLSGGVPLWNG: “inactive”.
